The source of these data is paper doi:10.1101/348268.

Experiment [1] concerns the target Mesoplasma florum ribonucleotide reductase protein R2 (MfR2), active form with meta-hydroxylated Tyr126 (DOPA) (Mesoplasma florum). In words: crystal structure.
In experiment [2] the target is Mesoplasma florum ribonucleotide reductase protein R2 (MfR2), inactive form with unmodified Tyr126 (Mesoplasma florum). In words: crystal structure.

In experiment [1], “Mesoplasma florum ribonucleotide reductase protein R2 (MfR2), active form with meta-hydroxylated Tyr126 (DOPA) (enzyme)” returned a stoichiometry N of 2. In experiment [2], “Mesoplasma florum ribonucleotide reductase protein R2 (MfR2), inactive form with unmodified Tyr126 (enzyme)” displayed a stoichiometry N of 2.
